Publication PMC10175742

Molecular target: N-cadherin (UniProt P19022)
Test: confocal 3D colocalisation
Details: reference: nonfailing control (NFC) heart tissue; sites S637,S647,T649,S650

Substance: αT-catenin (CTNNA3) (from UniProt Q9UI47) DCM heart tissue
- other: Pearson's correlation coefficient: stronger; reference 0.55 ± 0.04
